The text below walks through data of article PMC12594388, “Enzymatic properties of a L-asparaginase without secondary glutaminase activity from Streptomyces scabrisporus” (PLOS One, 2025).

Substrate in series [1]: NC(=O)C[C@H](N)C(=O)O
Nature of the series: Nessler ammonium assay, Michaelis-Menten fit. It is filed as biochemical, Rhizobium etli. The conditions noted are these: physiological pH (printed as pH 7 and as phosphate pH 7.4), 37 °C.

Substrate in series [2]: NC(=O)C[C@H](N)C(=O)O
Nature of the series: Nessler ammonium assay, Michaelis-Menten fit. The conditions noted are these: pH 10 (optimum), 37 °C, 0.5-20 mM asparagine. It is filed as biochemical, Embleya scabrispora. From the text:
Nessler ammonium assay, Michaelis-Menten fit on S. scabrisporus L-asparaginase

B1: R. etli L-asparaginase (Rhizobium etli CFN 42) (protein)
chain: MTPSEDFVVTDRGGIVENSHRVHAAVVDAKGRLLYALGNPTRMTLARSAAKPAQALAILETEGVAGYGFDDADIALMCASHSSEDRHIARTRAMLSKIKAEEADLRCGGHPSLSEMVNRSWIKQDFIPTAVCSNCSGKHVGMLAGARAIGAGTDGYHLPDHPMQGRVKRTVAELCDLDAGDVEWGTDGCNLPTPAFPLDRLGRIYAKLASAADGSDAGEGQSTRCAALAHIFRAMARHPEMVAGEGRYCTMLMRAFDGALVGKLGADASYAIGVRASDATRQLGTDGALGISVKIEDGNLEMLYAVVTELLERLGIGSPDVRSQLASFHHPQRVNTMGVTTGGVSFPFKLRGSKSNVDDPRLAAVAR
notes: pET28a (NcoI/EcoRI; pET28a-AnsRe), E. coli BL21(DE3), HisTrap purified, 38 kDa
The Km is the substrate concentration at which the rate is half of its maximum. One may read the kcat as the maximal rate divided by the concentration of active sites. For B1, in series [1], the Km stood at 15.9 ± 4.7 mM and the kcat was determined as 140.3 ± 7 s⁻¹.

B2: S. scabrisporus L-asparaginase (Embleya scabrispora) (protein)
chain: MRPEDTVPHESTTRYAELAEVVRSGFVESRHFGSLVALAPDGRPALELGVPNEPVVPRSSAKPFQALACLRAGAPLSGAHVAIAAGSHTGQDFHVDAVEDILTRSGLTFDALGCPPSRPEDEDTYQEMIARGEENTRERMNCSGKHAAMLAACVASGWPTEGYLDPGHPLQVLVREGIEELAGESVAHTAVDGCGAPVFAMTLTGLARGVRALATATTGPERVVAKAMREHPAYVGGDGQANTEVMRLLPGVLVKGGAEGVFVAATTAGHAVAVKVIDGSPRATTALALAALHRLGVDVSAASEWTTVPVLGGGLPVGEVRVTSHLG
notes: codon-optimised gene in pET28a(+) (NdeI/EcoRI; pET28a-AnsSs), E. coli BL21(DE3), HisTrap purified, 34 kDa
Consider B2, for which, in series [2], the Km is 7.361 ± 1.78 mM and the kcat is 40.8 ± 2 s⁻¹.
